B2: human FKBP52 (natural protein)
chain: MTAEEMKATESGAQSAPLPMEGVDISPKQDEGVLKVIKREGTGTEMPMIGDRVFVHYTGWLLDGTKFDSSLDRKDKFSFDLGKGEVIKAWDIAIATMKVGEVCHITCKPEYAYGSAGSPPKIPPNATLVFEVELFEFKGEDLTEEEDGGIIRRIQTRGEGYAKPNEGAIVEVALEGYYKDKLFDQRELRFEIGEGENLDLPYGLERAIQRMEKGEHSIVYLKPSYAFGSVGKEKFQIPPNAELKYELHLKSFEKAKESWEMNSEEKLEQSTIVKERGTVYFKEGKYKQALLQYKKIVSWLEYESSFSNEEAQKAQALRLASHLNLAMCHLKLQAFSAAIESCNKALELDSNNEKGLFRRGEAHLAVNDFELARADFQKVLQLYPNNKAAKTQLAVCQQRIRRQLAREKKLYANMFERLAEEENKAKAEASSGDHPTDTEMKEEQKSNTAGSQSQVETEA
notes: FKBP52 (gene FKBP4), human; The His6 tag is cleavable; source: bacterial expression plasmid pET151, purified

Settings in all cases: both partners purified
One experiment concerns the target T1, human FKBP51 (human, UniProt Q13451 1-457).
T1 construct: FKBP51, human; The His6 tag is cleavable; source: bacterial expression plasmid pET151, purified
T1 sequence: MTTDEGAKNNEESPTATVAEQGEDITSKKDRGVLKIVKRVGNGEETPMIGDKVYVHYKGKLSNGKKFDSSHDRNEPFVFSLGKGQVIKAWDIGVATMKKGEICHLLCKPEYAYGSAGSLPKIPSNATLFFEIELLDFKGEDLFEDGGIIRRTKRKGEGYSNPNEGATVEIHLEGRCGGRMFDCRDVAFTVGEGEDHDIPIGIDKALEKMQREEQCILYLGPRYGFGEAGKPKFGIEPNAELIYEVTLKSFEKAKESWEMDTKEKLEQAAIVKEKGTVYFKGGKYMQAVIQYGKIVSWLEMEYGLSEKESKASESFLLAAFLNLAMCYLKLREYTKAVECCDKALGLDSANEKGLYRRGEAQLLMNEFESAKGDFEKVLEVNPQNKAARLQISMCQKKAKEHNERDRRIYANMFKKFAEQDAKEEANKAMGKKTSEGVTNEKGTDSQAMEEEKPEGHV
The experiment is described as follows: cryo-EM structure; GR chaperone cycle reconstituted in vitro from purified components (GR DBD-LBD, Hsp70, Hsp40, Hop, Hsp90, p23, Bag-1) with FKBP51; 20 mM sodium molybdate; pulldown on MBP-GR DBD-LBD, size exclusion, 0.02% glutaraldehyde crosslinking; datasets III and IV. For orientation: In gel filtration, larger molecules generally elute earlier.

Another experiment concerns the target T2, human Hsp90α (human, UniProt P07900 1-732).
T2 construct: Hsp90α, human; also called Hsp90A; Hsp90B (the two protomers of the dimer)
The experiment is described as follows: cryo-EM structure; GR chaperone cycle reconstituted in vitro from purified components (GR DBD-LBD, Hsp70, Hsp40, Hop, Hsp90, p23, Bag-1) with FKBP52; 20 mM sodium molybdate; pulldown on MBP-GR DBD-LBD, size exclusion, 0.02% glutaraldehyde crosslinking; datasets I and II.

The experiment “human FKBP52” concerns the target B2. The description is as above.

B1: human GR DBD-LBD (residues 418-777, F602S) (domain or fragment, UniProt P04150 418-777, looked up)
chain: PKLCLVCSDEASGCHYGVLTCGSCKVFFKRAVEGQHNYLCAGRNDCIIDKIRRKNCPACRYRKCLQAGMNLEARKTKKKIKGIQQATTGVSQETSENPGNKTIVPATLPQLTPTLVSLLEVIEPEVLYAGYDSSVPDSTWRIMTTLNMLGGRQVIAAVKWAKAIPGFRNLHLDDQMTLLQYSWMSLMAFALGWRSYRQSSANLLCFAPDLIINEQRMTLPCMYDQCKHMLYVSSELHRLQVSYEEYLCMKTLLLLSSVPKDGLKSQELFDEIRMTYIKELGKAIVKREGNSSQNWQRFYQLTKLLDSMHEVVENLLNYCFQTFLDKTMSIEFPEMLAEIITNQIPKYSNGNIKKLLFHQK
notes: glucocorticoid receptor, human; codon optimized; The His6-MBP tag is cleavable; the complex was pulled down on MBP-GR DBD-LBD; Only the LBD was visible in the maps; also called glucocorticoid receptor; MBP-GR DBD-LBD; source: E. coli BL21 star (DE3), purified (Ni-NTA, size exclusion); not shown: MBP, N-terminal, kept
On to B1, for which the binding result in the experiment with human FKBP51, in the experiment with human Hsp90α and in the experiment with human FKBP52 was “binds” throughout.
With B2, the binding result in the experiment with human Hsp90α was “binds”.

These data come from publication PMC10716051, “Cryo-EM reveals how Hsp90 and FKBP immunophilins co-regulate the glucocorticoid receptor” (Nature Structural & Molecular Biology, 2023).
